Results: PMC7396596

Biological target: Recombinant SCY2 (Scylla paramamosain)
Assay: SPR; Biacore T200, CM5 chip; rSCY2 immobilised (~1,000 RU); rScyreprocin 12.5-400 nM flowed over; multiple cycle kinetics, 25°C, 30 μl/min, HEPES-buffered saline

- Kd: 20.8 nM
Substance: His-tagged scyreprocin (rScyreprocin) (natural protein)
